These results are taken from the supplement of paper PMC10065799, “High-throughput profiling of sequence recognition by tyrosine kinases and SH2 domains using bacterial peptide display” (eLife, 2023).

In one data set the target is Jak2 (UniProt O60674). Nature of the data set: phosphorylation enrichment, bacterial display (enrichment ratio); higher = better substrate or ligand; peptides without Tyr show the background.
The next data set addresses Fyn (UniProt P06241). Described as above.
The next data set relates to c-Src. Described as above.
The target of a further data set is MERTK (UniProt Q12866). The data set is described as above.
For a further data set, the target named is Fes (UniProt P07332). The data set is described as above.
A further data set concerns the target EPHB1 (UniProt P54762). Described as above.
Another data set deals with Fer (mouse). The description is as above.
In another data set the target is FGFR1 (UniProt P11362). Described as above.
A further data set has as its target FGFR3 (UniProt P22607). Described as above.
Another data set deals with c-Abl (mouse). The description is as above.
A further data set relates to AncSZ. The description is as above.
A further data set deals with Hck (UniProt P08631). The description is as above.
A further data set concerns the target EPHB2 (UniProt P29323). The description is as above.
The next data set concerns the target Grb2 SH2 (UniProt P62993). Nature of the data set: SH2 binding enrichment of the phosphorylated peptide, bacterial display (enrichment ratio); higher = better substrate or ligand; peptides without Tyr show the background.
For the next data set, the target named is SHP2-C SH2. Described as above.
The next data set has as its target c-Src SH2. The description is as above.
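Wherever SH2 binding enrichment of the phosphorylated peptide, bacterial display is given: peptide library displayed on the E. coli surface as eCPX fusions, selected cells deep-sequenced, score is each peptide's frequency after selection divided by its frequency in the input.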
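Wherever phosphorylation enrichment, bacterial display is given: 11-residue human phosphosite peptides and single-mutation variants displayed on the E. coli surface, counted by deep sequencing, each peptide's frequency after selection divided by its frequency in the unselected input library; frequency after pTyr selection over input frequency; kinase dosed for 20-30% of maximal phosphorylation in three min.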

Sequence of Fes (P07332 whole entry, looked up): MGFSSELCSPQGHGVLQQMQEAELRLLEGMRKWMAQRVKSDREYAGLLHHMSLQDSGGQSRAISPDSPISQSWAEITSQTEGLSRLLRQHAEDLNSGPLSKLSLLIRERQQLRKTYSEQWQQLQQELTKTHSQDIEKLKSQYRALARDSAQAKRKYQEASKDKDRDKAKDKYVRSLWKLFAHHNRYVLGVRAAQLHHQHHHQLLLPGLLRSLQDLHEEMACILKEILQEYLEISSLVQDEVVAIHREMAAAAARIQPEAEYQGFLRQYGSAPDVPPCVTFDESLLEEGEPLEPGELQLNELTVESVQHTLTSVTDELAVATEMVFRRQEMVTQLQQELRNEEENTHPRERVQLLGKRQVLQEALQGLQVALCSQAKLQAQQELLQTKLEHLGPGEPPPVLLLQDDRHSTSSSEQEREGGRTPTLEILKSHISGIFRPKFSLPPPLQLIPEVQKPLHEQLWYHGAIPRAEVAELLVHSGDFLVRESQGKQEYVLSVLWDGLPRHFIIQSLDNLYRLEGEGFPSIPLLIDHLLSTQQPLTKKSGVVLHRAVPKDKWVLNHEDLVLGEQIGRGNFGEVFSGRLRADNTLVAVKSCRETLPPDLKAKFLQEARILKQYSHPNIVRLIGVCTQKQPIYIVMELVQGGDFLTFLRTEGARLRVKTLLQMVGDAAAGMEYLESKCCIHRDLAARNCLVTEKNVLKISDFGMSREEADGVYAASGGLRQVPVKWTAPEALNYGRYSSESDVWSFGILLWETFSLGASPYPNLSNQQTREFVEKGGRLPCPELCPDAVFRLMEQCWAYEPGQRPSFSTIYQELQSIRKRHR
Sequence of EPHB1 (P54762 whole entry, looked up): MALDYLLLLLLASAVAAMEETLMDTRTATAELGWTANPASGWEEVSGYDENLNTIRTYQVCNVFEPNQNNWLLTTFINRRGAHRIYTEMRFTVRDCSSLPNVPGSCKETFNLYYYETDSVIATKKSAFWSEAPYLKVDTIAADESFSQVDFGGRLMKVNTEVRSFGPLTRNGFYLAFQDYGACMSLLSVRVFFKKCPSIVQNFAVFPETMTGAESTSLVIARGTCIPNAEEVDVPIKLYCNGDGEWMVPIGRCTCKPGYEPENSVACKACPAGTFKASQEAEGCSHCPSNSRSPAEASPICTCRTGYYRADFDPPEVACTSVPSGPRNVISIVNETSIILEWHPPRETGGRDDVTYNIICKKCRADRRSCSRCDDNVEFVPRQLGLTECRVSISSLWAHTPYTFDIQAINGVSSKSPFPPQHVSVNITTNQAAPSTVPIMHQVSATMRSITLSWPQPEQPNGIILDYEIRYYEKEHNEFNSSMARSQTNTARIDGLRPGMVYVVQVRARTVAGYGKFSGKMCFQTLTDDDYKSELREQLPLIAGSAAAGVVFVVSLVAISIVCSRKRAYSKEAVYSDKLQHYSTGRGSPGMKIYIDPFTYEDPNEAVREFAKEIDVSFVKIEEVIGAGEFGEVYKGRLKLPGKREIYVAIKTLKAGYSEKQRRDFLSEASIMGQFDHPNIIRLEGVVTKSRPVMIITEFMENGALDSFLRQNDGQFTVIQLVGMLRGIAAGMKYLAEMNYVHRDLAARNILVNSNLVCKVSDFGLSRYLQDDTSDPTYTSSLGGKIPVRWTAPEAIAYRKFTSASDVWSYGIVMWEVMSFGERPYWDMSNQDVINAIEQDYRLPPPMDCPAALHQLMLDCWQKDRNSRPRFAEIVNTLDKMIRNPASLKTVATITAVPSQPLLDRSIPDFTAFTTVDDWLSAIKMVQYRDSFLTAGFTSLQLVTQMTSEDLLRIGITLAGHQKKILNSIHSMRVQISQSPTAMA
Sequence of Grb2 SH2 (P62993 whole entry, looked up): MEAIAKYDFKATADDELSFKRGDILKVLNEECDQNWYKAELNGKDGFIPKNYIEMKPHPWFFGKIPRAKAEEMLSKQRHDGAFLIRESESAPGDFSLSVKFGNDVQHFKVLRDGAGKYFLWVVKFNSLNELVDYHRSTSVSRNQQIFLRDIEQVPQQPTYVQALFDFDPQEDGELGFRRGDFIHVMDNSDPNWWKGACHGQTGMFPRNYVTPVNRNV
Sequence of Fyn (P06241 whole entry, looked up): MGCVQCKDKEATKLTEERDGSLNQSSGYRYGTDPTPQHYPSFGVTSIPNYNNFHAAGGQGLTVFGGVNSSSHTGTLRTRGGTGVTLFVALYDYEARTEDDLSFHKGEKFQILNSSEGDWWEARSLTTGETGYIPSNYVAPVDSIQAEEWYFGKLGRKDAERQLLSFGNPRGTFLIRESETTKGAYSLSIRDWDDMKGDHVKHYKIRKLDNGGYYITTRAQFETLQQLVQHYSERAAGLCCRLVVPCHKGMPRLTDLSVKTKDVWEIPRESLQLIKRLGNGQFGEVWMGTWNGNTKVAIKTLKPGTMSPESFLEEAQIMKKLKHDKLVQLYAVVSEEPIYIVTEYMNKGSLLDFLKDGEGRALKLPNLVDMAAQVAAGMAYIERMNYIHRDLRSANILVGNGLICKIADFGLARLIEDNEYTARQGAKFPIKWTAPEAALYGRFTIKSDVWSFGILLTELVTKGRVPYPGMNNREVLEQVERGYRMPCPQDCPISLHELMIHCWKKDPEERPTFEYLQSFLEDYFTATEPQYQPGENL
Sequence of EPHB2 (P29323 whole entry, looked up): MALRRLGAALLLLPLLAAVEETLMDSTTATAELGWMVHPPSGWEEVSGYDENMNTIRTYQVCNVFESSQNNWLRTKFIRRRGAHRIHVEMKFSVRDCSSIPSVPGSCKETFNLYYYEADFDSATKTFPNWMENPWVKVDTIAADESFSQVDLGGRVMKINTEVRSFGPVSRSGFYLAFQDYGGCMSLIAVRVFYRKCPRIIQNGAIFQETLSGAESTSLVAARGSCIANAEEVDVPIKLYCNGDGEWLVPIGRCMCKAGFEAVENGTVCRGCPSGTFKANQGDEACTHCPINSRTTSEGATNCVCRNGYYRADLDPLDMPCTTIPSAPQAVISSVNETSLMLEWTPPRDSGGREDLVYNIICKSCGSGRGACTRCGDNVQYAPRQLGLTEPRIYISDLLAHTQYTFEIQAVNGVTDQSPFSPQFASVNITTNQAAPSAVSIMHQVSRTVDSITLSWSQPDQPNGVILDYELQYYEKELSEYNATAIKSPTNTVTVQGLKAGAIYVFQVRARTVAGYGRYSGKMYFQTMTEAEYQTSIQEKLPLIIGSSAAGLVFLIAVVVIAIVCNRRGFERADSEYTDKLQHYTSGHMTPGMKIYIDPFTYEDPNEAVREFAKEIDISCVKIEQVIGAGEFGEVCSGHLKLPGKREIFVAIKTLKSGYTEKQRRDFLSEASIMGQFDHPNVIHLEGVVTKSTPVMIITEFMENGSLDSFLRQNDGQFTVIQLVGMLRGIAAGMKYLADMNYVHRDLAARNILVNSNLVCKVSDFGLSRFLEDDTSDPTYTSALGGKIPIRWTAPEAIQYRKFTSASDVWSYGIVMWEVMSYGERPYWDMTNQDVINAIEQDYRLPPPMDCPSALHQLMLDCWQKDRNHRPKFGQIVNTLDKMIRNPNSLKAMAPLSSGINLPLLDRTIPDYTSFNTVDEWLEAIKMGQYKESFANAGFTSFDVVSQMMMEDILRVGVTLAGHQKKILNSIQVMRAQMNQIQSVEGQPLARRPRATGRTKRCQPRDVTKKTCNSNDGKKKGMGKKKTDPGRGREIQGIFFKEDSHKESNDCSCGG
Sequence of FGFR1 (P11362 whole entry, looked up): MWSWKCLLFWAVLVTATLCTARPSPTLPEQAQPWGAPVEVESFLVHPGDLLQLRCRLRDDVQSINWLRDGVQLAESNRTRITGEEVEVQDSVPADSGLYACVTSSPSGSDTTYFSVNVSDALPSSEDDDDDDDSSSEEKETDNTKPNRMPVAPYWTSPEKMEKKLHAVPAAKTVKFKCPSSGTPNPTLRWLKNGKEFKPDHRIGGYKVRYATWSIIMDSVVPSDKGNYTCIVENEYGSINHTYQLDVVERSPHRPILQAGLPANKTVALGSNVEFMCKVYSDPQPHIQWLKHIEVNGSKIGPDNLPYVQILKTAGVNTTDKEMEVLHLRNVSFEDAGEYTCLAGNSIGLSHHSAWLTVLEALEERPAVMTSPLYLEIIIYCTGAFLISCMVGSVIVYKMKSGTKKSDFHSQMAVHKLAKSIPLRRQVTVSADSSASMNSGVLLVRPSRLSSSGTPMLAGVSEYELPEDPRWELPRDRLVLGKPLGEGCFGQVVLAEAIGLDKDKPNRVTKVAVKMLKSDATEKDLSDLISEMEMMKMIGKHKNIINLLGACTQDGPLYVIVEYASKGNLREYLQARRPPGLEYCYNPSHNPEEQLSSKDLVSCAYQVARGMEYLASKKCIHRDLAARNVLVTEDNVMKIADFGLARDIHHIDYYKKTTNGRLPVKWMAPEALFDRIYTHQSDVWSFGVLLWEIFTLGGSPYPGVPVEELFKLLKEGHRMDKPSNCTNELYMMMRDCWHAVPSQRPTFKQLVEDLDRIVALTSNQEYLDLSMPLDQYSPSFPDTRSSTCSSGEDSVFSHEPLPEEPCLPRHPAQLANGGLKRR
Sequence of Hck (P08631 whole entry, looked up): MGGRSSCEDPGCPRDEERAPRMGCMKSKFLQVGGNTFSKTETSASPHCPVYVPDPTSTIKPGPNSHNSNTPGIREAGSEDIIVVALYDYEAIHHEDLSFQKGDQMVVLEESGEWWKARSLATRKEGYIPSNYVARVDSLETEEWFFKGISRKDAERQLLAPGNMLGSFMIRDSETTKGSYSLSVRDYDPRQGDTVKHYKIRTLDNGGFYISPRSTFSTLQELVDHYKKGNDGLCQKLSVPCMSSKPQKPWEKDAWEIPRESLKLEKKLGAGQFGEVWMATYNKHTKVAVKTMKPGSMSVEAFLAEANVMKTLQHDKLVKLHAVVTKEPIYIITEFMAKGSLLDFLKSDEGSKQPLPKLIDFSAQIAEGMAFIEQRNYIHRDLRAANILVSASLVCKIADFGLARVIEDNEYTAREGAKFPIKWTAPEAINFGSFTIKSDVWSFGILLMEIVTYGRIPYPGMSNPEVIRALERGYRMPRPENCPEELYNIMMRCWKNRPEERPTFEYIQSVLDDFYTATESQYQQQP

WFPYTYVEEDE [VAV3_Y842_S840Y]: the phosphorylation enrichment in the data set with Jak2 amounted to 1.08; with Fyn, 0.843; with c-Src, 1.3; with MERTK it was 0.625; in the data set with Fes it was 1.3; with EPHB1, 1.16. Also, the phosphorylation enrichment was 0.899 with Fer (mouse); 1.56 in the data set with FGFR1; 1.72 in the data set with FGFR3; 0.746 with c-Abl (mouse); 1.47 with AncSZ; 0.616 with Hck. Further, the phosphorylation enrichment with EPHB2 amounted to 0.773. Moreover, the SH2 binding enrichment was determined as 0.879 in the data set with Grb2 SH2, 1.91 in the data set with SHP2-C SH2 and 3.92 with c-Src SH2.
Turning to NESVDSRATFP [MET_Y1003_Y1003S], the phosphorylation enrichment came out at 0.826 in the data set with Jak2; 0.442 in the data set with Fyn; 0.48 in the data set on c-Src; 0.531 with MERTK; 1.1 in the data set with Fes; 0.427 with EPHB1. Also, the phosphorylation enrichment worked out at 0.376 in the data set with Fer (mouse); 0.485 with FGFR1; 0.583 in the data set with FGFR3; 0.661 in the data set with c-Abl (mouse); 0.783 with AncSZ; 0.492 with Hck. The phosphorylation enrichment with EPHB2 turned out to be 0.597. Moreover, the figures for the SH2 binding enrichment in the data set with Grb2 SH2, with SHP2-C SH2 and in the data set with c-Src SH2 were 0.925, 0.625 and 0.48, respectively.
As for GCKNRYDKDKP [THAP1_Y14], the phosphorylation enrichment with Jak2 came to 0.691; with Fyn it was 0.535; with c-Src, 0.591; with MERTK, 0.482; with Fes, 0.928; in the data set with EPHB1, 0.506. For the same sequence, the phosphorylation enrichment was determined as 0.745 in the data set on Fer (mouse); 0.557 with FGFR1; 0.804 with FGFR3; 0.752 in the data set on c-Abl (mouse); 0.655 with AncSZ; 0.596 with Hck. The phosphorylation enrichment with EPHB2 is 0.474. Besides, the SH2 binding enrichment with Grb2 SH2 turned out to be 1.36; with SHP2-C SH2, 0.768; in the data set with c-Src SH2, 0.949.
Consider AELVPYYMEHH [PTPN11_Y80_Q79P], for which the phosphorylation enrichment is 0.757 in the data set with Jak2; 0.626 in the data set with Fyn; 1.28 in the data set on c-Src; 0.552 in the data set with MERTK; 0.995 in the data set with Fes; 0.778 with EPHB1. Further, the phosphorylation enrichment in the data set on Fer (mouse) stood at 0.513; in the data set with FGFR1, 0.822; in the data set with FGFR3, 0.792; with c-Abl (mouse) it was 0.733; with AncSZ, 0.916; with Hck, 0.736. Further, in the data set with EPHB2, the phosphorylation enrichment came to 0.635. The results for the SH2 binding enrichment with Grb2 SH2, with SHP2-C SH2 and with c-Src SH2 were 0.963, 1.49 and 1.19, respectively.
With NTVDFYDLFGG [PTPN11_Y63_G60V_YF], the phosphorylation enrichment worked out at 0.926 in the data set with Jak2; 4.46 with Fyn; 2.56 with c-Src; 1.23 in the data set with MERTK; 0.951 with Fes; 0.576 in the data set with EPHB1. Also, the phosphorylation enrichment is 0.953 in the data set with Fer (mouse); 0.458 with FGFR1; 0.644 with FGFR3; 0.576 in the data set with c-Abl (mouse); 1.06 with AncSZ; 3.05 with Hck. The phosphorylation enrichment with EPHB2 is 0.618. Further, the SH2 binding enrichment with Grb2 SH2 came out at 0.997; in the data set with SHP2-C SH2, 0.812; with c-Src SH2, 0.665.
With KAWTIYHPEDS [ZBP1_Y165_R166H], the phosphorylation enrichment with Jak2 worked out at 0.871; with Fyn, 0.646; with c-Src it was 0.833; with MERTK it was 0.474; with Fes it was 1.02; with EPHB1, 0.559. For the same sequence, the phosphorylation enrichment worked out at 0.482 with Fer (mouse); 0.432 with FGFR1; 0.787 with FGFR3; 0.723 in the data set with c-Abl (mouse); 0.949 in the data set on AncSZ; 0.569 in the data set with Hck. The phosphorylation enrichment with EPHB2 amounted to 0.547. Moreover, the SH2 binding enrichment in the data set with Grb2 SH2 was determined as 0.897; in the data set with SHP2-C SH2, 0.875; with c-Src SH2 it was 0.518.
Consider VVLEDYLDIKH [CLCNKB_Y138_N143H], for which the phosphorylation enrichment in the data set with Jak2 turned out to be 0.959; with Fyn, 0.419; in the data set on c-Src, 0.458; with MERTK, 0.506; in the data set with Fes, 1.3; in the data set with EPHB1, 0.782. Also, the phosphorylation enrichment worked out at 0.506 in the data set with Fer (mouse); 1.24 in the data set with FGFR1; 1.05 in the data set with FGFR3; 0.716 in the data set on c-Abl (mouse); 1.25 with AncSZ; 0.534 with Hck. For the same sequence, the phosphorylation enrichment with EPHB2 was 0.66. Besides, the SH2 binding enrichment with Grb2 SH2 was 0.76; with SHP2-C SH2, 0.575; with c-Src SH2 it was 0.54.
Take LKGQVYILGQE [ASS1_Y359_R363Q]: the phosphorylation enrichment with Jak2 came out at 1.98; with Fyn, 0.816; in the data set with c-Src, 1.28; with MERTK it was 0.843; with Fes it was 2.47; with EPHB1, 1.09. Also, the phosphorylation enrichment came to 0.802 with Fer (mouse); 0.939 with FGFR1; 1.26 in the data set with FGFR3; 1.77 in the data set with c-Abl (mouse); 1.84 in the data set on AncSZ; 1.07 in the data set with Hck. Further, the phosphorylation enrichment with EPHB2 is 0.848. Also, the SH2 binding enrichment came out at 1.17 with Grb2 SH2, 0.761 with SHP2-C SH2 and 0.539 with c-Src SH2.
